The target of data set [1] is T1, streptavidin (magnetic beads) (UniProt P22629 P22629:25-183). The experiment in a line: pulldown; beads without bFab. The note with it: tags: immobilised on magnetic beads; chain copies: 4. The protocol: Aptamers were incubated with bFab (2.5-fold molar excess), then bound to SAMBs. Supernatants were taken, and the SAMBs washed 3 times. Bound material was eluted with 0.1 M NaOH, and then precipitated, washed, dried, and reconstituted before loading samples on a denaturing acrylamide gel. […] M is a size marker (top band 60 bases; aptamer bands 85 bases).
T1 sequence (P22629 25-183, one chain of several): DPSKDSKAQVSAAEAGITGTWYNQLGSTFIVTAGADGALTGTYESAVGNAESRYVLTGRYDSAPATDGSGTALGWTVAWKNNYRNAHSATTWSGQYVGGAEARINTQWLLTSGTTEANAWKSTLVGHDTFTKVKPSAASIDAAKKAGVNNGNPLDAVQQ
To assess binding of 10th-cycle singlet aptamers to the selective agent (the Fab target), direct binding assays were carried out. Here, single-stranded aptamer preparations (self-annealed as usual) were incubated with or without biotinylated Fab fragments in PBSM, followed by adsorption onto streptavidin magnetic beads. After this incubation period, the beads were magnetically separated, and the supernatants retained. After 3 washes of the beads, the bound material was eluted by means of 2×20 second incubations with 100 μl of 0.1 M NaOH, with the eluates immediately precipitated with 0.3 M sodium acetate and 3 volumes of ethanol. Pellets were washed with 70% ethanol, and dried. After reconstitution in 5 μl of TE, 1 μl samples were denatured in formamide and run on 10% urea (denaturing) gels. […]

In data set [2] the target is T1, streptavidin (magnetic beads). The experiment in a line: pulldown; beads without bFab. The note with it: tags: immobilised on magnetic beads; chain copies: 4. The protocol: Pellets were washed with 70% ethanol, and dried. After reconstitution in 5 μl of TE, 1 μl samples were denatured in formamide and run on 10% urea (denaturing) gels. Results of such an experiment with the candidate singlet aptamers 228/10AptR1 (see, FIG. 27 and FIG. 29) and 229/10AptL3 (see, FIG. 29) and a specific arbitrary unselected control Right-aptamer (#136; sequence corresponds to: GCAAAGACATCTGGA […] AAGGAGACTTAGAGGC (SEQ ID NO:6); where underlining indicates the 40-mer aptamer tract; remaining sequences are primer sites) are shown in FIG. 30. The supernatants from the 228/10AptR1 and 229/10AptL3 binding (but not #136) were depleted only in the presence of biotinylated Fab. Moreover, the eluted material from biotinylated Fab on the streptavidin magnetic beads was highly enriched for aptamer bands only for 228/10AptR1 and 229/10AptL3 (see, FIG. 30).
Despite successful in situ assembly of binary aptamers upon the target to which they were bound (as in Example 1), it could not be assumed that binary aptamers formed in solution would be capable of binding the same targets. This was assessed using the same aptamers as used in direct binding tests (Example 3; 228/10AptR1 and 229/10AptL3), but where the aptamers were initially ligated together by means of the same splint oligonucleotide as used in Example 1. […]
This is another data set of the same source.

The values below come from patent publication US20170335314, “Methods For Using Nucleic Acid Aptamers For Directed Templated Assembly” (TriBiotica LLC, published 2017).

B1: aptamer 228 (10AptR1) (ssDNA)
DNA: GCAAAGACATCTGGACACGCCACTAAGTGGAGGTGATCTGTACTTCATTTATGAGATCGCGGCGAGGAGAAGGAGACTTAGAGGC
Consider B1, for which, in data set [1], the binding result is “no binding”.

B2: binary aptamer 229-228 (ligated, 170 nt) (ssDNA)
DNA: CATCTCCACCTCCATAACCCACGGACGGGCGTCTAGAGAAGTAGGCTGAAATATCGTGGCGAGAACGAGCTGTGTCCTGAAGAAAGCAAAGACATCTGGACACGCCACTAAGTGGAGGTGATCTGTACTTCATTTATGAGATCGCGGCGAGGAGAAGGAGACTTAGAGGC
Take B2: the binding result in data set [2] was “no binding”.

B3: aptamer 229 (10AptL3) (ssDNA)
DNA: CATCTCCACCTCCATAACCCACGGACGGGCGTCTAGAGAAGTAGGCTGAAATATCGTGGCGAGAACGAGCTGTGTCCTGAAGAAA
As to B3, the binding result in data set [1] is on record as “no binding”.
